Consider eight variants from IntAct's records for PubMed 26551074.

To fix the notation:
B1: Telomerase-associated protein of 45 kDa (Tetrahymena thermophila (strain SB210)), Q6JXI5 (parent)
chain: MEDNFELVFLKELPSLPDFSKVCFTGLILSFSNFPSSEQNQQKDVPHKIAIIQDSTGEAELFLDMYKFCQEEISVFKAITGIGVLKKKNIGAGQVCKIIVERFRIIHSADEEMLQYLLIQKYKLSKTLNEQQQIKQKEQQINQQKIDKVVQDKESKEHLLWKQQQIPQIKSNQENINTLKYKELIAGELMRITHKLLIQKLQQQQPANNNKQINEMDVESNELAEKKEVIIKIQEIAKDQQLYDTLSIQYQVDQKEQYYAKIAQSLEDFVSISALKMVSYIYPNISYQVSIGFFQNILDIATKTVKDRGALGCNYKYLKDKLTKALNLQQISYPLISESYISYLVHLFQDFNIIEIENEHKFYYKQAFQYDDS
partner: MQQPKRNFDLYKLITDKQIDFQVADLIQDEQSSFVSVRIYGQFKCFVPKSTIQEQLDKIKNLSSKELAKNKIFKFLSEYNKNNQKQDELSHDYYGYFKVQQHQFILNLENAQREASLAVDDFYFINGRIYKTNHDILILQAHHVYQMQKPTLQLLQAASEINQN
B2: Telomerase-associated protein of 19 kDa (Tetrahymena thermophila (strain SB210)), D2CVN7 (parent)
chain: B1 partner
partner: B1 chain

The variants in one experiment derive from B1. The note with it: with tap19_tetts TAP19, D2CVN7.
On to MEDNFELVFLKELPSLPDFSKVCFTGLILSFSNFPSSEQNQQKDVPHKIAIIQDSTGEAELFLDMYKFCQEEISVFKAITGIGVLKKKNIGAGQVCKIIVERFRIIHSADERMLQYLLIQKYKLSKTLNEQQQIKQKEQQINQQKIDKVVQDKESKEHLLWKQQQIPQIKSNQENINTLKYKELIAGELMRITHKLLIQKLQQQQPANNNKQINEMDVESNELAEKKEVIIKIQEIAKDQQLYDTLSIQYQVDQKEQYYAKIAQSLEDFVSISALKMVSYIYPNISYQVSIGFFQNILDIATKTVKDRGALGCNYKYLKDKLTKALNLQQISYPLISESYISYLVHLFQDFNIIEIENEHKFYYKQAFQYDDS [E112R], for which the “effect of a mutation on the interaction” value was “disrupting interaction strength”.
On the same count and under the same terms, then MEDNFELVFLKELPSLPDFSKVCFTGLILSFSNFPSSEQNQQKDVPHKIAIIQDSTGEAELFLDMYKFCQEEISVFKAITGIGVLKKKNIGAGQVCKIIVERFRIIHSADEEWLQYLLIQKYKLSKTLNEQQQIKQKEQQINQQKIDKVVQDKESKEHLLWKQQQIPQIKSNQENINTLKYKELIAGELMRITHKLLIQKLQQQQPANNNKQINEMDVESNELAEKKEVIIKIQEIAKDQQLYDTLSIQYQVDQKEQYYAKIAQSLEDFVSISALKMVSYIYPNISYQVSIGFFQNILDIATKTVKDRGALGCNYKYLKDKLTKALNLQQISYPLISESYISYLVHLFQDFNIIEIENEHKFYYKQAFQYDDS [M113W], with “disrupting interaction strength”.
For the variant MEDNFELVFLKELPSLPDFSKVCFTGLILSFSNFPSSEQNQQKDVPHKIAIIQDSTGEAELFLDMYKFCQEEISVFKAITGIGVLKKKNIGAGQVCKIIVERFRIIHSWDEEMLQYLLIQKYKLSKTLNEQQQIKQKEQQINQQKIDKVVQDKESKEHLLWKQQQIPQIKSNQENINTLKYKELIAGELMRITHKLLIQKLQQQQPANNNKQINEMDVESNELAEKKEVIIKIQEIAKDQQLYDTLSIQYQVDQKEQYYAKIAQSLEDFVSISALKMVSYIYPNISYQVSIGFFQNILDIATKTVKDRGALGCNYKYLKDKLTKALNLQQISYPLISESYISYLVHLFQDFNIIEIENEHKFYYKQAFQYDDS [A109W], the “effect of a mutation on the interaction” value was “disrupting interaction strength”.
As for MEDNFELVFLKELPSLPDFSKVCFTGLILSFSNFPSSEQNQQKDVPHKIAIIQDSTGEAELFLDMYKFCQEEISVFKAITGIGVLKKKNIGAGQVCKIIVERFRIIHSRDEEMLQYLLIQKYKLSKTLNEQQQIKQKEQQINQQKIDKVVQDKESKEHLLWKQQQIPQIKSNQENINTLKYKELIAGELMRITHKLLIQKLQQQQPANNNKQINEMDVESNELAEKKEVIIKIQEIAKDQQLYDTLSIQYQVDQKEQYYAKIAQSLEDFVSISALKMVSYIYPNISYQVSIGFFQNILDIATKTVKDRGALGCNYKYLKDKLTKALNLQQISYPLISESYISYLVHLFQDFNIIEIENEHKFYYKQAFQYDDS [A109R], the “effect of a mutation on the interaction” value is “disrupting interaction strength”.

In the next experiment the parent is B2. The note with it: with tap45_tetts TAP45, Q6JXI5.
Regarding MQQPKRNFDLYKLITDKQIDFQVADLIQDEQSSFVSVRIYGQFKCFVPKSTIQEQLDKIKNLSSKELAKNKIFKFLSEYNKNNQKQDELSHDYYGYFKVQQHQFILNLENAQREASLAVDDFYFINGRIYKTNHDILILQAHHVAQMQKPTLQLLQAASEINQN, the “effect of a mutation on the interaction” value is on record as “disrupting interaction strength”.
Consider MQQPKRNFDLYKLITDKQIDFQVADLIQDEQSSFVSVRIYGQFKCFVPKSTIQEQLDKIKNLSSKELAKNKIFKFLSEYNKNNQKQDELSHDYYGYFKVQQHQFILNLENAQREASLAVDDFYFINGRIYKTNHDILILQAHHVYQWQKPTLQLLQAASEINQN, for which the “effect of a mutation on the interaction” value is “disrupting interaction strength”.
Still for that read-out and setting: in the case of MQQPKRNFDLYKLITDKQIDFQVADLIQDEQSSFVSVEIYGQFKCFVPKSTIQEQLDKIKNLSSKELAKNKIFKFLSEYNKNNQKQDELSHDYYGYFKVQQHQFILNLENAQREASLAVDDFYFINGRIYKTNHDILILQAHHVYQMQKPTLQLLQAASEINQN it was “disrupting interaction strength”; in that of MQQPKRNFDLYKLITDKQIDFQVADLIQDEQSSFVSVRIYGQFKCFVPKSTIQEQLDKIKNLSSKELAKNKIFKFLSEYNKNNQKQDELSHDYYGYFKVQQHQFILNLENAQREASLAVDDFYFINGRIYKTNHDILILQAHHVYQMQKPTLQLLQAASERNQN, “disrupting interaction strength”.
